The results in this text go back to PMC5040590.

In experiment [1] the target is r-synGAP-α1 (soluble, recombinant synGAP-α1, residues 103-1293) (rat). Nature of the experiment: SPR; 'competition in solution': 25 nM r-synGAP-α1 pre-equilibrated with 0-10 µM soluble PDZ domain; free r-synGAP-α1 captured on the same PDZ domain amine-coupled to a CM5 chip; Biacore T200, HBS-EP+, 25°C; single-site fit.
The target is the same in experiment [2].
The target is the same in experiment [3]. Description: pull-down; as a1, with or without Ca2+/CaM during the incubation with PDZ resin (legend: 0.7 mM CaCl2/3.4 μM CaM; methods: 2.5 µM CaM and 0.5 mM CaCl2); 500 nM r-synGAP-α1, 60 min, 25°C.
In experiment [4] the target is calmodulin (CaM), with Ca2+ (UniProt P62157). Description: SPR; CaM amine-coupled to a CM5 chip (50 RU); synGAP injected in HBS-EP+ with 10 mM CaCl2, 25°C, 100 µl/min; equilibrium analysis.
In experiment [5] the target is PDZ3 of PSD-95 (residues 302-402), soluble recombinant (mouse) (UniProt Q62108). Description: SPR; conventional Biacore assay: varying concentrations of r-synGAP-α1 applied to a chip with immobilised PDZ domain; one experiment.
Experiment [6] concerns the target CaM-Sepharose 4B (calmodulin on Sepharose resin) (UniProt P62157). Description: pull-down; equilibrium binding of purified synGAP (1-500 nM, 300 µl) to 50 µl CaM-Sepharose 4B, 60 min; 50 mM Tris pH 7.5, 200 mM NaCl, 5 mM TCEP, 2 mM CaCl2; bound protein by quantitative immunoblot; hyperbolic fit.
Experiment [7] concerns the target PDZ123 domain-HaloTag fusion on HaloLink resin (PDZ123 affinity resin) (mouse) (UniProt Q62108). Nature of the experiment: pull-down; PDZ domain-HaloTag fusions on HaloLink resin (20 µl); r-synGAP-α1 500 nM, 200 µl, 60 min, 25°C; 25 mM Tris pH 7.0, 150 mM NaCl, 1 mM MgCl2, 0.5 mM TCEP, 0.2% Tergitol, 0.5 mM EDTA; bound protein eluted, SDS-PAGE, Gel Code Blue, quantified.

The target in experiment [8] is PDZ123 domain-HaloTag fusion on HaloLink resin (PDZ123 affinity resin) (UniProt Q62108). Description: PDZ123 affinity resin binding (pull-down, eluate quantified). As to conditions: phosphorylated 0.5 min with 10 nM CaMKII, 0.7 mM CaCl2/3.4 μM CaM; resin 60 min at 25°C; n = 4; parent: est. 0.0079; read off a plot.

With “PDZ2 of PSD-95 (residues 155-249), soluble recombinant (from UniProt Q62108 155-249) (domain or fragment)”, the Kd in experiment [1] worked out at 1500 nM.

In the case of “PDZ3 of PSD-95 (residues 302-402), soluble recombinant (from UniProt Q62108 302-402) (domain or fragment)”, the Kd in experiment [1] came to 620 nM. Consider “calmodulin (CaM), with Ca2+ (from UniProt P62157 1-149) (natural protein)”, for which the rate and stoichiometry of phosphorylation of r-synGAP-α1 by CDK5/p35 or CDK5/p25 in the presence of Ca2+/CaM (0.7 mM CaCl2, 3.4 μM CaM) in experiment [2] turned out to be 2 fold. Further, in experiment [3], the percent reduction of binding of r-synGAP-α1 to PDZ3 with Ca2+/CaM came to 25%. Regarding “r-synGAP-α1 (soluble, recombinant synGAP-α1, residues 103-1293) (domain or fragment)”, the Kd came out at 9 nM in experiment [4], 730 nM in experiment [5] and 31 nM in experiment [6]. Besides, in experiment [7], the amount bound per individual PDZ domain, relative to PDZ1 or PDZ2 alone amounted to 4 fold. This substance yielded an amount bound per individual PDZ domain, relative to PDZ3 alone in experiment [7] of 2 fold. Take “r-synGAP-α1 phosphorylated by CaMKII for 0.5 min S1093D; S1123D”: the response (pmol r-synGAP-α1/pmol PDZ domain) in experiment [8] worked out at 0.0083. Take “r-synGAP-α1 phosphorylated by CaMKII for 0.5 min S1093D; S1123D; S1283D”: in experiment [8], the response (pmol r-synGAP-α1/pmol PDZ domain) is 0.014. Same read-out and setting: in the case of “r-synGAP-α1 phosphorylated by CaMKII for 0.5 min S1123D” it was 0.0099; in that of “r-synGAP-α1 phosphorylated by CaMKII for 0.5 min S1283D”, 0.011. In the case of “r-synGAP-α1 phosphorylated by PLK2 for 10 min (domain or fragment)”, in experiment [7], the decrease of binding relative to unphosphorylated r-synGAP-α1 worked out at 40%.
